Test: label from the status in PepcDB records

Q: With “MVTKEQVVEALEGIVDPFLHKTLKETSAIKEVTVKPEKEHVSVKIAIVKTGTAEQMQLQSGIVKLVKELGAATVGLRFAEFTEEELAQFAPEQEEEQSESLLSPNSKTTFLAVASGKGGVGKSTVSVNLAVALARLGKKVGIIDADIYGFSVPDMMGIEKRPIVRGDKIIPVERLGVKVISMGFFVEDNAPVIWRGPMLGKMLNHFFTEVEWGDLDYLVLDLPPGTGDVALDVHSMLPSCKEIIVTTPHPTAAFVAARAGAMALRTEHSILGVVENMAYFESKVTGEKEYVFGKGGGDKLATELQTNVLGRIPLQQPDWNKEDFAPSVYEDTHTTGIIYSKIAETVIDKTAVTQKLEHHHHHH” as the sequence, how does the protein production read?
A: The protein production was “not failed”.

Q: With “MVTLCQVFGVHRSSYRYWKNRPEKPDGRRAVLRSQVLELHGISHGSAGARSIATMATRRGYQMGRWLAGRLMKELGLVSCQQPTHRYKRGGHEHVAMPKWVILYCRRWMEAPMQSCENGELITRTRGTPQGGVISPLLANLFLHYAFDLWMEREYRGVPFERYADDIVVHCSRMSDATRLKNRLSERFSEVGLVLNAGKTNIAYIDTFKRRNVATSFTFLGYDFKVRTLKNFKGERYRKCMPGASNAAMRKITETIKKWRIHRSTAESLLDFARRYNTIVRGWIEYYGKFWSRNFNYRLWSAMQSRLLKWMQSKYRLSNRKAQRKLTLVRKEYPKLFVHWYLLRASNE” as the sequence, how does the protein production read?
A: The protein production was “failed”.

Q: Which protein production does the source give for “MVTNQKHLEDFGYLKMTQKEGTILPEEYVSIIQHPKGGPKSVTLRENKVSGLKENFIHYLTDTEPGSSGSPVFNDQWTLVALHHSGVPNPEIKDLEHHHHHH” here?
A: The protein production was “not failed”.

Q: With “MVTQKQRRLWAFLAALACVMWGISGLFAKSLFNISSDITPMWLSQIRMVTSGIILLIVAGILKQKPIATMKNKHDAWVIIAYGIFGLLPVQLFYFIVVQQANASIATILQFVGPFFVMGYLAFTHKQVMRRIDVIAAIFAFIGVVLLATHGRFNHLAITPSVLFWGLLSAVGVATNTLIPIGVLKRVSSLVVTGWGLLSAGICLMIVHPQMPHIPNTPHVWLDVLAVIVIGTLIPFQLMTNSLRFIKASTASLLDAFEPFSATLGSVLCFGLVMTPMDWIGSILVVLAAMALNISPKKKKGKLDGKSQD” as the sequence, how does the protein production read?
A: The protein production was “failed”.

Q: Which protein production does the source give for “MVTSSQVMLMPAHDSAKPTGFGIMVTSLDLLRDHQKVIHTLWFIDDVVARELGGFDGFCRRERVLLLFVDSTNTTLSFTRNDMTCVPRQGGADSDHWLFKRHLALLLPLSFAQVYEGFISFYEEEDKHISWDIKSCSSSSHQ” here?
A: The protein production was “failed”.

Q: With “MVTTRKPLRAAIIGLGRLGERHARHLVNKIQGVKLVAACALDSNQLEWAKNELGVETTYTNYKDMIDTENIDAIFIVAPTPFHPEMTIYAMNAGLNVFCEKPLGLDFNEVDEMAKVIKSHPNQIFQSGFMRRYDDSYRYAKKIVDNGDIGKIIYMRGYGIDPISGMESFTKFATEADSGGIFVDMNIHDIDLIRWFTGQDPVQAYGLTSNIAAPQLADIGEFETGVAQLKMSDGVIATLIGGRHAAHGNQVELEVMGSNGWVRIGEHPDLNRVTVFNDQGVVRPSLQSFGERFDTAFTDEVQDFVNNVIVGKQPEVTVDDGIKALKIAKACQQSANIGKLVDIQL” as the sequence, how does the protein production read?
A: Its protein production is “failed”.

Q: With “MVVADGHDLQESPLRWIPFLAVFLYVYIEISIFIQVAHVLGVLMTLILVIFTSVIGMSLVRNQGFKNFLLMQQKMAAGESPAAEMIKSVSLIIAGLLLLLPGFFTDFLGLLLLLPPVQKHLTLKLLPHLRFSRMPGGGFSAGTGGGETFDGEYQRKDDDRDRIEHKDDRRD” as the sequence, how does the protein production read?
A: The protein production was “failed”.

Q: For “MVVSVLMPTYNHERFIEQAILSFIQQQVDFDIELLIGDDCSSDNTSFIARIYAEKYPNKIHLFQYSVNRGLMHNYKYLLNQAKGKYIAILESDDIWLDPFKLHKQVEIIEKTPNCGLVFSNWIVIDADSKEVTRSQRTLKTIGYSDLLKSNMVAAVTVLFSRNMFDLYCDIDEYILRNFKTLDYPVWLSISAHSNIIYLDDYTAGYRCLSTSISNSNSYQRSMAFNQSIDAIVQYVVSKYGKGELTIKELENASKLRYLTQAFQFKKFSQAFSIAWTFHATNIKSFIIKVLPFIWLCKNRKLIGQRLK”, which protein production is on record?
A: Its protein production is “failed”.

Q: Which protein production does the source give for “MVVTCPKCGAKNRLGTPPPGQVPVCGACKTPLPWVVEADEKGFAQEVAGAPLTLVDFFAPWCGPCRLVSPILEELARDHAGRLKVVKVNVDEHPGLAARYGVRSVPTLVLFRRGAPVATWVGASPRRVLEERLRPYLEGR” here?
A: The protein production was “not failed”.

Q: With “MVVVTGREPDSRRQDGAMSSSDAEDDFLEPATPTATQAGHALPLLPQEFPEVVPLNIGGAHFTTRLSTLRCYEDTMLAAMFSGRHYIPTDSEGRYFIDRDGTHFGDVLNFLRSGDLPPRERVRAVYKEAQYYAIGPLLEQLENMQPLKGEKVRQAFLGLMPYYKDHLERIVEIARLRAVQRKARFAKLKVCVFKEEMPITPYECPLLNSLRFERSESDGQLFEHHCEVDVSFGPWEAVADVYDLLHCLVTDLSAQGLTVDHQCIGVCDKHLVNHYYCKRPIYEFKITWW” as the sequence, how does the protein production read?
A: The protein production was “failed”.

Q: Which protein production does the source give for “MVWFLILQLIVLLILVAFSATLMAKGTRELERSFGKGIAGGLILGFINALPETIIVIQAVLNGFYDIALGSALGGNILLLTLGIGLISIFYYLKYKSNIITLDSDINIEYSSFLLAVIILGIAIVYGKLNYYIGLFLLSPYIYYIYRRYKNYRGILKNEKNKGNAIKGLAYVMIGGLPLIFISKYLISTISSIASVFNVQPLILAILITPIAAELEENLTAIKLISDSPSSATTALMNFIGSKLENMTLLLSIIGISQTVSLRPSLLYLLLILATSLLALGIIKDRNIKVKEGLSLFGIYAILIAILLRFSA” here?
A: The protein production was “failed”.

Q: Which protein production does the source give for “MVWLAVFLAVLGAFFLAIGAQRQGSAVKADTGGLALSSNGFLRLLRNPRWMLGLLFLALGMVMNAVALVSAPLTVVQPIGAIALVITTVVNAKDQGLSINRATVVAISACVTGSALFVLLAVNVTQENHHVNTEDELTIVLLLALAVGIFGTLAVVFRHRMSAFVYILGAGVLFGFVAVLTRIIGKHLLDPNGLFLLNVQWYTLIAIVAAGGLGSWFVQSAYSGGPPDLVIAGLTVIDPMVGIAIGIVILGELRPDVHAVMAIAMAAAATLAIVGVIALSRHHPEVTKRKKDAKAAASRKA” here?
A: Its protein production is “failed”.

Q: With “MVYLMLCLKIWRVVLKKNKTLVFISLFLLSVFLGGFYFYFDPNILYLLKGEKDFSKLIMGIDFYIDKKKFADAKKAMLFSSYYANTEFKWLALAKRAKLWALNTGDYHLMGEIVNLGVKVLPGNLKLRALEVYSKLKIGLLKDAYRIANEYLLNSEEYQGLYDEVFIKNLSSDNGILDFNKFIDKIYKEKDARIFEEIGLNLKNNAFLINAMLLYIEKKNIDSAKRILFRIKEDKSFLKELAYISYNLNDLDYTISNLKSIKNEEDPTLLFLLADAYFKKGDIKNAKNEYLKLYTRFPDYNVLVYLNLALIANSENDYKRAISYLNKANEVFKDNKIINYYLANIYFGIKNYFKANEIIANYKEDPLFFKLYFALNYANSKYEAKKSYLWRLFYKTEYNSSIAQFLAWNLLLYSDLKDLDLFFRIYNFSENKQDWYDFYKFYYYFLKRDFISSKKIIFDNKSQKYMFGIYYNLGVLSFSEKDYEEAERYFNKGISLLPSSFYDKDSTTPYERELVSKIYLKQGINYLYLGKMEKGKESILASYSFYETDEGRLYKNMIDTLRERNLNFD” as the sequence, how does the protein production read?
A: Its protein production is “failed”.

Q: Which protein production does the source give for “MVYWEYKINQTRRVMKNLKFQSVFDIIGPVMVGPSSSHTAGAVRIGKIVSAIFGDAPTEVEFQLFNSFAKTYRGHGTDVALVAGILGMETDDPDIPHALDIAHEKGIKVYWKINKDSKAPHPNTTRITLKNATKTISATGISIGGGNIQVTELNGF” here?
A: The protein production was “not failed”.

Q: For “MWAFPERFEGRHVRLEPLALAHLPAFLRHYDPEVYRFLSRAPVAPTEEALRAHLEGLLGEPGRVNWAILFGKEVAGRISVIAPEPEHAKLELGTMLFKPFWGSPANKEAKYLLLRHAFEVLRAERVQFKVDLRNERSQRALEALGAVREGVLRKNRRLPDGAFRDDVVYSVLKEEWPGVKARLEARLYGASGN”, which protein production is on record?
A: Its protein production is “not failed”.

Q: With “MWARTAAWVFGLPETLREICYRRDNVKPVDELQKTIGHRFGDMELLLTAMTHSSWANEQAVPVEHNERLEFLGDAVLELCVSEELFRRFPSAREGDLTRMRSRLVSKPSLEGVARELRLDMSLRLGKGEESQGGRERGSLLSDALEAMLGAVFLDAGYIAAKGVVMRILGPHFPEALVPVRTKDYKSQLQELTQKLFRDRPVYTLLGSSGPEHDKQFDVRVVLPDGTVFEATGPSMKRAEQMAAARAVATLDK” as the sequence, how does the protein production read?
A: Its protein production is “failed”.

Q: With “MWIVLWPGLTGLPDSLVLLARVGGCSVLYDTGSGEPGSIVALAANLASAGVKPWSINVAIVSHAHVPSSGGARWLHDNHRVTIAARRPDSRWIEEGDPVKTAAVDYGLPTKPVPIGLELEREGRMPGECEGVEVLFTPGHTPGSVSVSLDTGDATVLAVSDALGRLKRDWGSSEREWMESLDKISSRDPDYLCTSVTCMDRRAAKAFLDEIREKGPVWDVENSSGDGPG” as the sequence, how does the protein production read?
A: The protein production was “failed”.

Q: For “MWKKKIVLSFLFYLISALGISLTIQAGVGVSSFNAFNVTFATLTHLKVGTVTTAINFAFLGTCWLLDQQRKIQDYLIILVALIGFGFVINFFLYQLFGSLVFQNYLVKIVLFILGTIIAGIGTGQVVALGVLQFPIEKFCTLISERTRYSFQFYRYLVDIFCVSLALGLSISYHLPIFVREGTVISLFLLSWVISWSRKRGQQRILRIQIKKLESE”, which protein production is on record?
A: The protein production was “failed”.

Q: With “MWNYQKNILVCMIAGLGLSTCTPSDVSIPGAATIDVMNGFPDGESGYALGVSGCYAGKLGDFLLMAGGCNFPDKPVSEGGIKHYYKGIYIARVDDSSSLRWVKAGELPMEAAYGATVSLPDRLIFIGGSNSSDRFSSVLSFSFDCMKDSGLICETLPPLPHAVDNMSATLLGDTLYVLGGNRNGIPSSSMFSLCLDNYSAGWTEVPFPGRPRVQPVCSSLLGKLYVFGGFTSGGDASVSTDGLCYHPESGQWQVVKAPLTTKGEPLTLTGGASVSYGDVLLICAGGVNRDIFEDAISARYQMVRESEYLLQPIEWYRFNDQLLAYNVRSGEWIRIGVPSPMLARAGSSLVVFGDILFYIGGELKPGVRTPGICRISLQK” as the sequence, how does the protein production read?
A: The protein production was “failed”.

Q: For “MWSYDKITDYLMNNLGEKRYKHSLGVMDTAVRLAGIYNEDTEKARIAGLVHDCAKKLPGEKIIEICTNEGYELGDEDIRNSYLLHGLAGRILAKKVIGIDDEDVLNAIEFHTTGRPNMSLLEKIIYIADYIEPGREFKGVDELRKAADEDLNKALLMSFDNTIKFVIDKGGFLHHNTIEARNYLISRKG”, which protein production is on record?
A: The protein production was “not failed”.

Q: Which protein production does the source give for “MWTRLLPFLAWLPGLHRGMLGREAWVGLNGAILALPQSMAYALIAGLPAEYGLYAAMLPVAIACLWGSSRYLVSGPTAAISVLLFSSVAPLAPLGSPQYVQAVLLLTFLAGAFQWLLGVLRVGSLVNFVSHSVMLGFTLGAALLIVLGQLPYLLGLAASGEGAAPGNGWRLLARFAEFDGPSLLVGGFSFALSLLVRRLRPRWPALLLGLLGGATLVWALPGTFASVAHVQALSSALPGWSPLVFDSRSILDLLPAAVACGMLGLVTSLSIARALAARQGDAFDANQEVRAQGLSNLLGPWLSASLSAGSFTRSGLNLEAGARSPLAGAFSALWVALLAVLGARLIEHVPLPAMAAGILLIAWGLIDRPALRALYRSGRAECLVAGLTALATLLLPLQNAIYAGVLASLVFYLRRTSTPRVLRQRNDEEEVLRIEGSIFFGACDYLQRLMRQCDRPRLVLDARQVNFIDFAGAVLLQQEARRLHAEGRRLVLRHARPQVREALGRQADEGCRLHYEG” here?
A: Its protein production is “failed”.

Q: For “MWVYRLKGTLEALDPILPGLFDGGARGLWEREGEVWAFFPAPVDLPYEGVWEEVGDEDWLEAWRRDLKPALAPPFVVLAPWHTWEGAEIPLVIEPGMAFGTGHHETTRLALKALARHLRPGDKVLDLGTGSGVLAIAAEKLGGKALGVDIDPMVLPQAEANAKRNGVRPRFLEGSLEAALPFGPFDLLVANLYAELHAALAPRYREALVPGGRALLTGILKDRAPLVREAMAGAGFRPLEEAAEGEWVLLAYGR”, which protein production is on record?
A: Its protein production is “not failed”.

— a protein production outcome set (Wang et al. 2014)
